Measured values published in patent US20230265151A1, “GIP/GLP1 CO-AGONIST COMPOUNDS” (priority 2020, published 2023).
*1 amine or outer side, *2 acyl side, *3 side chain or, on linkers, in order; H or OH if unused. Where no end group is shown, it is not given here. Side-chain parts run from the residue outwards. [ ]: non-standard residue; d: D form. The star is where a group is joined. Decanoyl(10-(4-HOOC-PhO)) = O=C(O)c1ccc(OCCCCCCCCCC(=O)*)cc1; αMePhe(2-F) = C[C@](N)(Cc1ccccc1F)C(=O)O; γGlu = O=C(O)[C@H](CCC(=O)[*:2])N[*:1]; αMeY = C[C@](N)(Cc1ccc(O)cc1)C(=O)O; αMeL = CC(C)C[C@](C)(N)C(=O)O; Orn = NCCC[C@H](N)C(=O)O; AEEA = NCCOCCOCC(=O)O; Aib = CC(C)(N)C(=O)O

Experiments:
Experiment in all cases: cell-based or functional assay
[1] = molecular target: T1, human GIP receptor (human) (UniProt P48546)
T1 sequence (looked up): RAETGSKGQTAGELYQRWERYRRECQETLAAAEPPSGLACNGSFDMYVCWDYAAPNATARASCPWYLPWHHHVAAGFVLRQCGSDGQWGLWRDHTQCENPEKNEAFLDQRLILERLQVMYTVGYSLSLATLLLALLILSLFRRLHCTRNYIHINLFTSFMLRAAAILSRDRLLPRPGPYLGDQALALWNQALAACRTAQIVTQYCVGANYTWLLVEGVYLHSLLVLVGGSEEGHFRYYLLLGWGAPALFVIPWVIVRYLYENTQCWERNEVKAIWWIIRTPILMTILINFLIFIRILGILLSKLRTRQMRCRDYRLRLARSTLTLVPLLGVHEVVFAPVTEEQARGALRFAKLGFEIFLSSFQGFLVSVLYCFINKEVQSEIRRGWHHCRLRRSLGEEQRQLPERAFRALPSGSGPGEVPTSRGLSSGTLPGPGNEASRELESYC

[2] = molecular target: human glucagon receptor (human) (UniProt P47871)
hGLP-1R = hGLP-1R (Homo sapiens, UniProt P43220)
human GIP receptor = molecular target: T2, human GIP receptor (human, UniProt P48546 22-466)
T2 sequence (looked up): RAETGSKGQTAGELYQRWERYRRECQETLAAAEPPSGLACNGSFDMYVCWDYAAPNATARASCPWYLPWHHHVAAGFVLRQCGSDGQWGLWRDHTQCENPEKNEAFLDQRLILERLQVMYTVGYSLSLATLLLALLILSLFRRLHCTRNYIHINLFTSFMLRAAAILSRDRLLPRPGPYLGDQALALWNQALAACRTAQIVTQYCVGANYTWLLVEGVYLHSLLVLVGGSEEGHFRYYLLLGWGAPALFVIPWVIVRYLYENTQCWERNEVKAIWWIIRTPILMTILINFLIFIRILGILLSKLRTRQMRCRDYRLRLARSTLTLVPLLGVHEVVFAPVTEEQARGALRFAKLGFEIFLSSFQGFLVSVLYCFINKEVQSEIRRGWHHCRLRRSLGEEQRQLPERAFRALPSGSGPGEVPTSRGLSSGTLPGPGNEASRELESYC

human GLP-1 receptor = human GLP-1 receptor (human, UniProt P43220 24-463)
human glucagon receptor = human glucagon receptor (human, UniProt P47871 26-477)

With Y[Aib]EGT[αMePhe(2-F)]TSDV[Aib]I[αMeL]LD[Orn]K([AEEA-AEEA-γGlu-Decanoyl(10-(4-HOOC-PhO))])AQ[Aib]EFI[dE][αMeY]LIK([AEEA-AEEA-γGlu-Decanoyl(10-(4-HOOC-PhO))])GGPSSGAPPPS-NH2 [Example 326] the cAMP EC50 [1] was 0.0338 nM, the cAMP Emax [1] was 102% and the cAMP EC50 [2] was over 9950 nM. For the same binder, the cAMP EC50 (hGLP-1R) was 0.186 nM, the cAMP Emax (hGLP-1R) was 94.4% and the “cAMP EC50 (1.0% HSA)” value (human GIP receptor) was 4.62 nM. The “cAMP Emax (1.0% HSA)” value (human GIP receptor) was 88.7%, the “cAMP EC50 (1.0% HSA)” value (human GLP-1 receptor) was 26.1 nM and the “cAMP Emax (1.0% HSA)” value (human GLP-1 receptor) was 96.1%. The “cAMP EC50 (1.0% HSA)” value (human glucagon receptor) was over 9950 nM.

B1: Example 302 (peptide)
peptide: YXEGTXTSDYXIXLDXKAQXEFIXXLIEGGPSSGAPPPSK
modifications: Y-Aib-EGT-αMeF(2F)-TSDY-Aib-I-αMeL-LD-Orn-K((2-[2-(2-Amino-ethoxy)-ethoxy]-acetyl)2-(γ-Glu)-CO-(CH2)10-CH3)AQ-Aib-EFI-(D-Glu)-αMeY-LIEGGPSSGAPPPSK((2-[2-(2-Amino-ethoxy)-ethoxy]-acetyl)2-(γ-Glu)-CO-(CH2)10-CH3)-NH2
For B1, the cAMP EC50 [1] was 0.00916 nM, the cAMP Emax [1] was 100% and the cAMP EC50 [2] was over 9950 nM. For the same binder, the cAMP EC50 (hGLP-1R) was 0.0917 nM, the cAMP Emax (hGLP-1R) was 103% and the “cAMP EC50 (1.0% HSA)” value (human GIP receptor) was 0.453 nM. The “cAMP EC50 (1.0% HSA)” value (human GLP-1 receptor) was 6.55 nM, the “cAMP Emax (1.0% HSA)” value (human GLP-1 receptor) was 99.4% and the “cAMP EC50 (1.0% HSA)” value (human glucagon receptor) was over 9950 nM.

B2: Example 324 (peptide)
peptide: YXEGTXTSDXXIXLDXKAQXEFIXXLIEGGPSSGAPPPSK
modifications: Y-Aib-EGT-αMeF(2F)-TSD-4Pal-Aib-I-αMeL-LD-Orn-K((2-[2-(2-Amino-ethoxy)-ethoxy]-acetyl)2-(γ-Glu)-CO-(CH2)10-CH3)AQ-Aib-EFI-(D-Glu)-αMeY-LIEGGPSSGAPPPSK((2-[2-(2-Amino-ethoxy)-ethoxy]-acetyl)2-(γ-Glu)-CO-(CH2)10-CH3)-NH2
Work on B2 yielded a cAMP EC50 [1] of 0.00632 nM, a cAMP Emax [1] of 101% and a cAMP EC50 [2] of over 9950 nM. For the same binder, the cAMP EC50 (hGLP-1R) was 0.0647 nM, the cAMP Emax (hGLP-1R) was 97.6% and the “cAMP EC50 (1.0% HSA)” value (human GIP receptor) was 0.321 nM. For the same binder, the “cAMP EC50 (1.0% HSA)” value (human GLP-1 receptor) was 4.38 nM, the “cAMP Emax (1.0% HSA)” value (human GLP-1 receptor) was 99.4% and the “cAMP EC50 (1.0% HSA)” value (human glucagon receptor) was over 9950 nM.

B3: Example 292 (peptide)
peptide: YXEGTXTSDKXIXLDXKAQXEFIXXLIEGGPSSGAPPPS
modifications: Y-Aib-EGT-αMeF(2F)-TSDK((2-[2-(2-Amino-ethoxy)-ethoxy]-acetyl)2-(γ-Glu)-CO-(CH2)10-CH3)-Aib-I-αMeL-LD-Orn-K((2-[2-(2-Amino-ethoxy)-ethoxy]-acetyl)2-(γ-Glu)-CO-(CH2)10-CH3)AQ-Aib-EFI-(D-Glu)-αMeY-LIEGGPSSGAPPPS-NH2
Binder B3 has a cAMP EC50 [1] of 0.0062 nM, a cAMP EC50 [2] of over 9950 nM and a cAMP EC50 (hGLP-1R) of 0.0758 nM. For the same binder, the cAMP Emax (hGLP-1R) was 104%, the “cAMP EC50 (1.0% HSA)” value (human GIP receptor) was 0.416 nM and the “cAMP EC50 (1.0% HSA)” value (human GLP-1 receptor) was 4.35 nM. The “cAMP EC50 (1.0% HSA)” value (human glucagon receptor) was over 9950 nM.

B4: Example 322 (peptide)
peptide: YXEGTXTSDXXIXLDXKAQXKFIXXLIEGGPSSGAPPPS
modifications: Y-Aib-EGT-αMeF(2F)-TSD-4Pal-Aib-I-αMeL-LD-Orn-K((2-[2-(2-Amino-ethoxy)-ethoxy]-acetyl)2-(γ-Glu)-CO-(CH2)10-CH3)AQ-Aib-K((2-[2-(2-Amino-ethoxy)-ethoxy]-acetyl)2-(γ-Glu)-CO-(CH2)10-CH3)FI-(D-Glu)-αMeY-LIEGGPSSGAPPPS-NH2
In the case of B4, the cAMP EC50 [1] is reported as 0.00937 nM, the cAMP Emax [1] is reported as 101% and the cAMP EC50 [2] is reported as over 9950 nM. For the same binder, the cAMP EC50 (hGLP-1R) was 0.144 nM, the cAMP Emax (hGLP-1R) was 100% and the “cAMP EC50 (1.0% HSA)” value (human GIP receptor) was 0.617 nM. For the same binder, the “cAMP EC50 (1.0% HSA)” value (human GLP-1 receptor) was 8.09 nM, the “cAMP Emax (1.0% HSA)” value (human GLP-1 receptor) was 94.5% and the “cAMP EC50 (1.0% HSA)” value (human glucagon receptor) was over 9950 nM.

B5: Example 299 (peptide)
peptide: YXEGTXTSDXSIXLDXKAQXXFIXXLIKGGPSSGAPPPS
modifications: Y-Aib-EGT-αMeF(2F)-TSD-4Pal-SI-αMeL-LD-Orn-K((2-[2-(2-Amino-ethoxy)-ethoxy]-acetyl)2-(γ-Glu)-CO-(CH2)10-CH3)AQ-Aib-Orn-FI-(D-Glu)-αMeY-LIK((2-[2-(2-Amino-ethoxy)-ethoxy]-acetyl)2-(γ-Glu)-CO-(CH2)10-CH3)GGPSSGAPPPS-NH2
Work on B5 yielded a cAMP EC50 [1] of 0.0104 nM, a cAMP Emax [1] of 101% and a cAMP EC50 [2] of over 9950 nM. For the same binder, the cAMP EC50 (hGLP-1R) was 0.126 nM, the cAMP Emax (hGLP-1R) was 103% and the “cAMP EC50 (1.0% HSA)” value (human GIP receptor) was 0.204 nM. The “cAMP EC50 (1.0% HSA)” value (human GLP-1 receptor) was 2.58 nM, the “cAMP Emax (1.0% HSA)” value (human GLP-1 receptor) was 102% and the “cAMP EC50 (1.0% HSA)” value (human glucagon receptor) was over 9950 nM.

B6: Example 293 (peptide)
peptide: YXEGTXTSDKSIXLDXKAQXEXIXXLIEGGPSSGAPPPS
modifications: Y-Aib-EGT-αMeF(2F)-TSDK((2-[2-(2-Amino-ethoxy)-ethoxy]-acetyl)2-(γ-Glu)-CO-(CH2)10-CH3)SI-αMeL-LD-Orn-K((2-[2-(2-Amino-ethoxy)-ethoxy]-acetyl)2-(γ-Glu)-CO-(CH2)10-CH3)AQ-Aib-E-αMeF-I-(D-Glu)-αMeY-LIEGGPSSGAPPPS-NH2
B6 was tested, and the cAMP EC50 [1] was 0.00915 nM, the cAMP Emax [1] was 102% and the cAMP EC50 [2] was over 9950 nM. For the same binder, the cAMP EC50 (hGLP-1R) was 0.102 nM, the cAMP Emax (hGLP-1R) was 102% and the “cAMP EC50 (1.0% HSA)” value (human GIP receptor) was 0.987 nM. The “cAMP Emax (1.0% HSA)” value (human GIP receptor) was 96.6%, the “cAMP EC50 (1.0% HSA)” value (human GLP-1 receptor) was 10.7 nM and the “cAMP Emax (1.0% HSA)” value (human GLP-1 receptor) was 99.4%. For the same binder, the “cAMP EC50 (1.0% HSA)” value (human glucagon receptor) was over 9950 nM.
